# Test: label from the status in PepcDB records
# 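Further: failed if final PepcDB status was selected cloned or expressed and not failed if soluble or beyond.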
row,Sequence,protein production
1,MSDVMTLKKSDIYNSDGSVKHTAFIHDKKTGKANTLYLKPVQQDLLQYHDWLVQENINSEWLFPSASHHNRHITEKQFYKVMARVGDLLSINYHYLGTHTMRKTGAYRVYTQSNYNIGLVMHLLNHSSEVMTLTYLGLDHASRETMLDQIDFG,failed
2,MSVLKEYRTVSEVVGPLMIVDQVAGVHYNELVDITLHNGERRKGQVLEVQGDKAMVQLFEGSTGINLAKTKVRFTGHPLELAVSEDMVGRIFDGMGQPIDGGPELIPEKYLDIDGQAINPVARDYPDEFIQTGISAIDHLNTLVRGQKLPVFSGSGLPHNELAAQIARQATVLNSDDNFAVVFAAMGITFEEAEFFMNDLRETGAIDRSVLFINLANDPAIERIATPRIALTTAEYLAYEKGMHVLVIMTDMTNYCEALREVSAARREVPGRRGYPGYLYTNLSTLYERAGRLIGKKGSVTQIPILTMPEDDITHPIPDLTGYITEGQIILSQELYKNGFRPPINVLPSLSRLKDKGSGEGKTRQDHAATMNQLFAAYAQGKQAKELAVVLGESALSETDKLYVAFTNRFEEEYINQGFYTNRSIEESLDLGWELLSILPRTELKRIKDDMLDRYLPKADTTMTKVFVAND,failed
3,MSIKYLYDRKKIAVTYGEEKYSYADIIKYVNYYSEFLDISKGDRVALMMENRPESIFSFFSIWAKKGIALSLDAGYTVEQLAFVLNDSKPKYIFVSNKIKEVVEKANEQVGNIVKIMVVDEITLPTDYVIKQEEYENDSNEDLAVIVYTSGTTGNPKGVMITYENIKTNMEGVRAVDLVTETDVILAMLPYHHIMPLCFTLILPMYMGVPIVLLTEISSASLLKALQENRVTVILGVPRVWEMLDKAIMTKINQSSLAKFMFKMASKINSMSIRKMLFSKVHKQFGGNIRLMVSGGAKIDKNILEDFRTMGFCAIQGYGMTETAPIITFNVPGRERSDSAGEVIPNVEVKIADDGEILVKGKNVMKGYYNNEQATKEAFDKDGWFHTGDLGKMDGKYLIIIGRKKEMIVLPNGKNIDPNDIEAEIIKNTDLIKEIAVTEYKEQLLAIIYPDFDQIKAKQIVNIKDAIKWEVIDKYNVTAPNYKKIHDIKIVKEELPKTRIGKIRRFMLKDLIEEKTENTDKKEAKKIIEVPAEMKEKFDIINKYMDERYQKAIDLDSHIELDLGFDSLDIVEFMNFLNSTFEITIVEQDFVENKTISAIIKLINDKAGKLVEKIDKNENLKKIIESDSNVKLPKDARYAKVLKFILSLMFRYYFKYKYRGKENLGEGAGIIVGNHQSYLDAFMLNNAFTYKELGGNYYIATALHFKSNFMKYLAGHGNIILVDANRNLKNTLQAAAKVLKSGKKLLIFPEGARTRDGQLQEFKKTFAILSKELNVPIYPFVLKGAYEAFPYNKKFPKRNNISVQFLEKIEPNDKTVEELVEETKNNIAKNYY,failed
4,MKFSKFGQKFTQPTGISQLMDDLGDALKSDQPVNMLGGGNPAKIDAVNELFLETYKALGNDNDTGKANSSAIISMANYSNPQGDSAFIDALVGFFNRHYDWNLTSENIALTNGSQNAFFYLFNLFGGAFVNEHSQDKESKSVDKSILLPLTPEYIGYSDVHVEGQHFAAVLPHIDEVTHDGEEGFFKYRVDFEALENLPALKEGRIGAICCSRPTNPTGNVLTDEEMAHLAEIAKRYDIPLIIDNAYGMPFPNIIYSDAHLNWDNNTILCFSLSKIGLPGMRTGIIVADAKVIEAVSAMNAVVNLAPTRFGAAIATPLVANDRIKQLSDNEIKPFYQKQATLAVKLLKQALGDYPLMIHKPEGAIFLWLWFKDLPISTLDLYERLKAKGTLIVPSEYFFPGVDVSDYQHAHECIRMSIAADEQTLIDGIKVIGEVVRELYDNK,not failed
5,MEFYEVIKKRKSIKKFEQTAIDRDKLLKIIDMAMRAPSWKNKTPYKFIVVESDKLKLDIANAIENKTSAASEAVLNSPMTIVAVANPEESGDVSGKEIYLIDTAIAMEHIVLGATDEGYGTCWIAAFNENKIKEALKIPDNLRVVALTPLGVPKDSAEDEPHHPKKDMDEYLYIDKWGTSFMESNVKILEKN,not failed
6,MSSLLGTFLYTLETTLPVFAMVFIGIGLRRIGWIDQGFIATASALVFKATLPTLVFLSIIRADLDTTLSISMLIFYFLATLASFALVWFWATKRVRQEDRGVYVQGAFRGNCGIVGLALAANLYGDYGLSAGGLLLGLVIVVYNSLSVIVLLAYQPGKTMSLSNTLRDIARNPLIIGVVLAIPFAAFEITLPGWVMTSGDYFASLTLPLALLCIGATVSLKSIRSDSGPAMGSSIWKMVSLPALCTLVAWLAGFEGRELGLMFLFFASPTAAASFVMVKALGGNDRMAANIIALTTLLASVTVTTGVFVLQSIGVA,failed

# Reference: a protein production outcome set (Wang et al. 2014)
